Experimental data: patent publication US20200024322A1 (Eli Lilly, published 2020)
Numbered stars: 1 amine (or outer) side, 2 acyl side, 3 side chain; on linkers, the order of the positions; unused ones are H or OH. Square brackets hold non-standard residues; d marks the D form. Side chains are listed from the residue outwards. Ends that are not written are not given here. * marks the point of attachment. C20 diacid = O=C(O)CCCCCCCCCCCCCCCCCCC(=O)*; γGlu = O=C(O)[C@H](CCC(=O)[*:2])N[*:1]; AEEA = NCCOCCOCC(=O)O; Aib = CC(C)(N)C(=O)O

T1: human GIP receptor (human, UniProt P48546 22-466)
T1 construct: whole, on cells; Used as crude membranes of stably transfected CHO cells; also called hGIPR
T1 sequence (looked up): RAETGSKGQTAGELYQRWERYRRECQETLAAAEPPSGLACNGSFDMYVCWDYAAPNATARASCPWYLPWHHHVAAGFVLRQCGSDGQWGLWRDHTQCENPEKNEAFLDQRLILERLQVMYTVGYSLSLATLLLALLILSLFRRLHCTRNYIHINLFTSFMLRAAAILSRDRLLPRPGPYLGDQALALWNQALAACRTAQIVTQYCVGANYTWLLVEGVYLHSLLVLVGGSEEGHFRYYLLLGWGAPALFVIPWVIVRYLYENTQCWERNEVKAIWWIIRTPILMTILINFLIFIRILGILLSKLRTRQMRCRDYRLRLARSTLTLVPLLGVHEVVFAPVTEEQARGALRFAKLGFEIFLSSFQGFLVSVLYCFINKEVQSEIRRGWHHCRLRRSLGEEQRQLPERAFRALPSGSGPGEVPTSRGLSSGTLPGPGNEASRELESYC

B1: Example 7 (peptide)
peptide: Y[Aib]EGTFTSDYSILLDSK([AEEA-AEEA-γGlu-C20 diacid])AQ[Aib]AFIEYLLEGGPSSGAPPPS-NH2
modifications: N-terminus assumed
SMILES: CC[C@H](C)[C@H](NC(=O)[C@H](Cc1ccccc1)NC(=O)[C@H](C)NC(=O)C(C)(C)NC(=O)[C@H](CCC(N)=O)NC(=O)[C@H](C)NC(=O)[C@H](CCCCNC(=O)COCCOCCNC(=O)COCCOCCNC(=O)CC[C@H](NC(=O)CCCCCCCCCCCCCCCCCCC(=O)O)C(=O)O)NC(=O)[C@H](CO)NC(=O)[C@H](CC(=O)O)NC(=O)[C@H](CC(C)C)NC(=O)[C@H](CC(C)C)NC(=O)[C@@H](NC(=O)[C@H](CO)NC(=O)[C@H](Cc1ccc(O)cc1)NC(=O)[C@H](CC(=O)O)NC(=O)[C@H](CO)NC(=O)[C@@H](NC(=O)[C@H](Cc1ccccc1)NC(=O)[C@@H](NC(=O)CNC(=O)[C@H](CCC(=O)O)NC(=O)C(C)(C)NC(=O)[C@@H](N)Cc1ccc(O)cc1)[C@@H](C)O)[C@@H](C)O)[C@@H](C)CC)C(=O)N[C@@H](CCC(=O)O)C(=O)N[C@@H](Cc1ccc(O)cc1)C(=O)N[C@@H](CC(C)C)C(=O)N[C@@H](CC(C)C)C(=O)N[C@@H](CCC(=O)O)C(=O)NCC(=O)NCC(=O)N1CCC[C@H]1C(=O)N[C@@H](CO)C(=O)N[C@@H](CO)C(=O)NCC(=O)N[C@@H](C)C(=O)N1CCC[C@H]1C(=O)N1CCC[C@H]1C(=O)N1CCC[C@H]1C(=O)N[C@@H](CO)C(N)=O
B2: Example 27 (peptide)
peptide: Y[Aib]EGTFTSDYSILK([AEEA-AEEA-γGlu-C20 diacid])DKIAQ[Aib]AFIEYLIEGGPSSGAPPPS-NH2
modifications: N-terminus assumed
SMILES: CC[C@H](C)[C@H](NC(=O)[C@H](CCCCN)NC(=O)[C@H](CC(=O)O)NC(=O)[C@H](CCCCNC(=O)COCCOCCNC(=O)COCCOCCNC(=O)CC[C@H](NC(=O)CCCCCCCCCCCCCCCCCCC(=O)O)C(=O)O)NC(=O)[C@H](CC(C)C)NC(=O)[C@@H](NC(=O)[C@H](CO)NC(=O)[C@H](Cc1ccc(O)cc1)NC(=O)[C@H](CC(=O)O)NC(=O)[C@H](CO)NC(=O)[C@@H](NC(=O)[C@H](Cc1ccccc1)NC(=O)[C@@H](NC(=O)CNC(=O)[C@H](CCC(=O)O)NC(=O)C(C)(C)NC(=O)[C@@H](N)Cc1ccc(O)cc1)[C@@H](C)O)[C@@H](C)O)[C@@H](C)CC)C(=O)N[C@@H](C)C(=O)N[C@@H](CCC(N)=O)C(=O)NC(C)(C)C(=O)N[C@@H](C)C(=O)N[C@@H](Cc1ccccc1)C(=O)N[C@H](C(=O)N[C@@H](CCC(=O)O)C(=O)N[C@@H](Cc1ccc(O)cc1)C(=O)N[C@@H](CC(C)C)C(=O)N[C@H](C(=O)N[C@@H](CCC(=O)O)C(=O)NCC(=O)NCC(=O)N1CCC[C@H]1C(=O)N[C@@H](CO)C(=O)N[C@@H](CO)C(=O)NCC(=O)N[C@@H](C)C(=O)N1CCC[C@H]1C(=O)N1CCC[C@H]1C(=O)N1CCC[C@H]1C(=O)N[C@@H](CO)C(N)=O)[C@@H](C)CC)[C@@H](C)CC
B3: Example 25 (peptide)
peptide: Y[Aib]EGTFTSDYSK([AEEA-AEEA-γGlu-C20 diacid])LLDKIAQ[Aib]AFIEYLIEGGPSSGAPPPS-NH2
modifications: N-terminus assumed
SMILES: CC[C@H](C)[C@H](NC(=O)[C@H](CCCCN)NC(=O)[C@H](CC(=O)O)NC(=O)[C@H](CC(C)C)NC(=O)[C@H](CC(C)C)NC(=O)[C@H](CCCCNC(=O)COCCOCCNC(=O)COCCOCCNC(=O)CC[C@H](NC(=O)CCCCCCCCCCCCCCCCCCC(=O)O)C(=O)O)NC(=O)[C@H](CO)NC(=O)[C@H](Cc1ccc(O)cc1)NC(=O)[C@H](CC(=O)O)NC(=O)[C@H](CO)NC(=O)[C@@H](NC(=O)[C@H](Cc1ccccc1)NC(=O)[C@@H](NC(=O)CNC(=O)[C@H](CCC(=O)O)NC(=O)C(C)(C)NC(=O)[C@@H](N)Cc1ccc(O)cc1)[C@@H](C)O)[C@@H](C)O)C(=O)N[C@@H](C)C(=O)N[C@@H](CCC(N)=O)C(=O)NC(C)(C)C(=O)N[C@@H](C)C(=O)N[C@@H](Cc1ccccc1)C(=O)N[C@H](C(=O)N[C@@H](CCC(=O)O)C(=O)N[C@@H](Cc1ccc(O)cc1)C(=O)N[C@@H](CC(C)C)C(=O)N[C@H](C(=O)N[C@@H](CCC(=O)O)C(=O)NCC(=O)NCC(=O)N1CCC[C@H]1C(=O)N[C@@H](CO)C(=O)N[C@@H](CO)C(=O)NCC(=O)N[C@@H](C)C(=O)N1CCC[C@H]1C(=O)N1CCC[C@H]1C(=O)N1CCC[C@H]1C(=O)N[C@@H](CO)C(N)=O)[C@@H](C)CC)[C@@H](C)CC
B4: Example 24 (peptide)
peptide: Y[Aib]EGTFTSDYK([AEEA-AEEA-γGlu-C20 diacid])ILLDKIAQ[Aib]AFIEYLIEGGPSSGAPPPS-NH2
modifications: N-terminus assumed
SMILES: CC[C@H](C)[C@H](NC(=O)[C@H](CCCCN)NC(=O)[C@H](CC(=O)O)NC(=O)[C@H](CC(C)C)NC(=O)[C@H](CC(C)C)NC(=O)[C@@H](NC(=O)[C@H](CCCCNC(=O)COCCOCCNC(=O)COCCOCCNC(=O)CC[C@H](NC(=O)CCCCCCCCCCCCCCCCCCC(=O)O)C(=O)O)NC(=O)[C@H](Cc1ccc(O)cc1)NC(=O)[C@H](CC(=O)O)NC(=O)[C@H](CO)NC(=O)[C@@H](NC(=O)[C@H](Cc1ccccc1)NC(=O)[C@@H](NC(=O)CNC(=O)[C@H](CCC(=O)O)NC(=O)C(C)(C)NC(=O)[C@@H](N)Cc1ccc(O)cc1)[C@@H](C)O)[C@@H](C)O)[C@@H](C)CC)C(=O)N[C@@H](C)C(=O)N[C@@H](CCC(N)=O)C(=O)NC(C)(C)C(=O)N[C@@H](C)C(=O)N[C@@H](Cc1ccccc1)C(=O)N[C@H](C(=O)N[C@@H](CCC(=O)O)C(=O)N[C@@H](Cc1ccc(O)cc1)C(=O)N[C@@H](CC(C)C)C(=O)N[C@H](C(=O)N[C@@H](CCC(=O)O)C(=O)NCC(=O)NCC(=O)N1CCC[C@H]1C(=O)N[C@@H](CO)C(=O)N[C@@H](CO)C(=O)NCC(=O)N[C@@H](C)C(=O)N1CCC[C@H]1C(=O)N1CCC[C@H]1C(=O)N1CCC[C@H]1C(=O)N[C@@H](CO)C(N)=O)[C@@H](C)CC)[C@@H](C)CC
B5: Example 9 (peptide)
peptide: Y[Aib]EGTFTSDYSILLDSK([AEEA-AEEA-γGlu-C20 diacid])AQ[Aib]AFIEYLIEGGPSSGAPPPS-NH2
modifications: N-terminus assumed
SMILES: CC[C@H](C)[C@H](NC(=O)[C@H](CC(C)C)NC(=O)[C@H](Cc1ccc(O)cc1)NC(=O)[C@H](CCC(=O)O)NC(=O)[C@@H](NC(=O)[C@H](Cc1ccccc1)NC(=O)[C@H](C)NC(=O)C(C)(C)NC(=O)[C@H](CCC(N)=O)NC(=O)[C@H](C)NC(=O)[C@H](CCCCNC(=O)COCCOCCNC(=O)COCCOCCNC(=O)CC[C@H](NC(=O)CCCCCCCCCCCCCCCCCCC(=O)O)C(=O)O)NC(=O)[C@H](CO)NC(=O)[C@H](CC(=O)O)NC(=O)[C@H](CC(C)C)NC(=O)[C@H](CC(C)C)NC(=O)[C@@H](NC(=O)[C@H](CO)NC(=O)[C@H](Cc1ccc(O)cc1)NC(=O)[C@H](CC(=O)O)NC(=O)[C@H](CO)NC(=O)[C@@H](NC(=O)[C@H](Cc1ccccc1)NC(=O)[C@@H](NC(=O)CNC(=O)[C@H](CCC(=O)O)NC(=O)C(C)(C)NC(=O)[C@@H](N)Cc1ccc(O)cc1)[C@@H](C)O)[C@@H](C)O)[C@@H](C)CC)[C@@H](C)CC)C(=O)N[C@@H](CCC(=O)O)C(=O)NCC(=O)NCC(=O)N1CCC[C@H]1C(=O)N[C@@H](CO)C(=O)N[C@@H](CO)C(=O)NCC(=O)N[C@@H](C)C(=O)N1CCC[C@H]1C(=O)N1CCC[C@H]1C(=O)N1CCC[C@H]1C(=O)N[C@@H](CO)C(N)=O
B6: Example 8 (peptide)
peptide: YXEGTFTSDYSILLDKKAQXAFIEYLIEGGPSSGAPPPS
modifications: Aib2; K17((2-[2-(2-Amino-ethoxy)-ethoxy]-acetyl)2-(γ-Glu)-CO-(CH2)18-CO2H); Aib20; C-terminal NH2

Experiments:
[1] = target: T2, human GLP-1 receptor (human, UniProt P43220 24-463); experiment: SPA, [125I]-GLP-1 displacement, hGLP-1R membranes
T2 construct: whole, on cells; Used as crude membranes of stably transfected HEK293 cells; also called hGLP1R; hGLP-1R

[2] = target: T1, human GIP receptor; experiment: SPA, [125I]-GIP displacement, hGIPR membranes
[3] = target: T3, human glucagon receptor (human, UniProt P47871 26-477); experiment: SPA, [125I]-Gcg displacement, hGcgR membranes
T3 construct: whole, on cells; Used as crude membranes of stably transfected HEK293 cells; also called hGcgR; hGLcgR
T3 sequence (P47871 26-477): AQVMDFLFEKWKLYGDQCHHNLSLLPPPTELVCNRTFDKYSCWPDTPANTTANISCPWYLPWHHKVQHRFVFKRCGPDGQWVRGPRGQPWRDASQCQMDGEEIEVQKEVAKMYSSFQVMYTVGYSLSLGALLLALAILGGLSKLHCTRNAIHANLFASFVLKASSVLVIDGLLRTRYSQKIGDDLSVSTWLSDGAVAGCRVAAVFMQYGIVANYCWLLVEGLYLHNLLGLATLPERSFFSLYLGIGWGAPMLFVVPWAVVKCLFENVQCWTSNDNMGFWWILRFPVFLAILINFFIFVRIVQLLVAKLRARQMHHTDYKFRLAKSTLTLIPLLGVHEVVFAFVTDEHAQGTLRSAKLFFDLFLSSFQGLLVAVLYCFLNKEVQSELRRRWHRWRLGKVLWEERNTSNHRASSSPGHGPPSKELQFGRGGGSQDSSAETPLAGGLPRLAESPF

Row | Binder | Ki [1] | Ki [2] | Ki [3]
1 | B1 | 43.3 nM | 0.252 nM | 198 nM
2 | B2 | 3.68 nM | 0.103 nM | 315 nM
3 | B3 | 4.8 nM | 0.179 nM | 81.1 nM
4 | B4 | 5.04 nM | 0.232 nM | 49.8 nM
5 | B5 | 14.9 nM | 0.127 nM | 375 nM
6 | B6 | 2.84 nM | 0.0772 nM | 206 nM
